These results are taken from PMC5356841 (Oncotarget, 2016).

Assay [1] has as its target T1, individual catalytic domain of human MT1-MMP (MT1-CAT) (human, UniProt P50281, biotin (EZ-Link sulfo-NHS-LC-biotin, 1:20 enzyme-biotin molar ratio) in the Fab binding ELISA only; unlabelled in the competition ELISA and the cleavage assays).
T1 construct: MT1-MMP (MMP-14), human, catalytic domain (CAT); its limits may differ; In functional rows on human cells this molecule stands for cellular full-length MT1-MMP (said in readout); also called MMP-14
In words: ELISA; biotin-labelled MT1-CAT (25 nM) captured on streptavidin-coated wells; Fab 0-8,000 nM in TBS/T-0.5% gelatin, 1 h, ambient temperature; detected with HRP-conjugated goat anti-human Fab; Kd = Fab concentration that bound 50% of MT1-MMP. The following applies: both partners purified.

Assay [2] addresses T1, individual catalytic domain of human …. The assay is described as follows: cell-based or functional assay.

Bounds are passed on as bounds.

B1: 2B5 Fab (Fab, V domains shown)
VH: EVQLVESGGGLVQPGGSLRLSCAASGFNLSYSSMHWVRQAPGKGLEWVASIYPYSGYTYYADSVKGRFTISADTSKNTAYLQMNSLRAEDTAVYYCARIGVNAWAVKMSQRMLATRGSGWYVMDYWGQGTLVTVSS
VL: DIQMTQSPSSLSASVGDRVTITCRASQSVSSAVAWYQQKPGKAPKLLIYSASSLYSGVPSRFSGSRSGTDFTLTISSLQPEDFATYYCQQSSSYPYSPITFGQGTKVEIK
notes: VH CDR-H3; Only CDR-H3 is printed; Same synthetic human Fab library as 3A2 (accompanying manuscript, submitted); source: E. coli, purified from cell lysates (purity >95%)
For the molecule B1, in assay [1], the binding result is recorded as “binds”.

B2: DX2400 Fab (Fab, V domains shown)
VH: EVQLLESGGGLVQPGGSLRLSCAASGFTFSLYSMNWVRQAPGKGLEWVSSIYSSGGSTLYADSVKGRFTISRDNSKNTLYLQMNSLRAEDTAVYYCARGRAFDIWGQGTMVTVSS
VL: DIQMTQSPSSLSASVGDRVTITCRASQSVGTYLNWYQQKPGKAPKLLIYATSNLRSGVPSRFSGSGSGTDFTLTISSLQPEDFATYYCQQSYSIPRFTFGPGTKVDIK
notes: VH CDR-H3; Only CDR-H3 is printed; also called DX2400 Fab fragment; source: cloning, expression and isolation reported earlier [66]
Consider B2, for which the dissociation constant (Kd) in assay [1] turned out to be 2 nM. Further, the “IC50 of inhibition of MT1-CAT (5 nM) cleavage of the Mca-PLGL-Dpa-AR-NH2 peptide (1 uM); Fab 0-5,000 nM” value (shortened to “IC50 of inhibition of MT1-CAT”) in assay [2] worked out at 8.5 nM.

B3: 3E9 Fab (Fab, V domains shown)
VH: EVQLVESGGGLVQPGGSLRLSCAASGFNLYYSSMHWVRQAPGKGLEWVASIYPSYGSTYYADSVKGRFTISADTSKNTAYLQMNSLRAEDTAVYYCARNGRYPGFLKRAHKRLLNFKAYVMDYWGQGTLVTVSS
VL: DIQMTQSPSSLSASVGDRVTITCRASQSVSSAVAWYQQKPGKAPKLLIYSASSLYSGVPSRFSGSRSGTDFTLTISSLQPEDFATYYCQQGSWYLITFGQGTKVEIK
For the molecule B3, the “IC50 of inhibition of MT1-CAT” value in assay [2] is over 5000 nM.

B4: 3A2 Fab (Fab, V domains shown)
VH: EVQLVESGGGLVQPGGSLRLSCAASGFNLSSSSMHWVRQAPGKGLEWVASIYPSYSYTYYADSVKGRFTISADTSKNTAYLQMNSLRAEDTAVYYCARVKLQKDKSHQWIRNLVATPYGRYVMDYWGQGTLVTVSS
VL: DIQMTQSPSSLSASVGDRVTITCRASQSVSSAVAWYQQKPGKAPKLLIYSASSLYSGVPSRFSGSRSGTDFTLTISSLQPEDFATYYCQQYGYPITFGQGTKVEIK
notes: numbers count on the anti-TDRD3 Fab; From a synthetic human Fab library with 23-27 residue long CDR-H3; selection is described in an accompanying manuscript (submitted); also called 3A2 antibody; 3A2 Fab antibody; source: E. coli, purified from cell lysates (purity >95%)
On to B4, for which, in assay [1], the Kd was 8 nM. For the same molecule, in assay [2], the “IC50 of inhibition of MT1-CAT” value was 18 nM.
